Results on 8 molecules are retold here after patent US8580497B2, “Methods for detection of the oncogenic T1796A B-Raf mutation” (The Wellcome Trust, priority 2001, dated 2013).

One series deals with ERK in WM266.4 cells. As to the kind of experiment: ERK activity, Western blot with ppERK antibody. It counts as cell-based, human. The note with it: compound at 10 μM. How it is done:
FIG. 3B. Inhibition of ERK in melanoma cell lines using pharmacological reagents. WM266.4 or A375P cells were treated with 10 μM U0126, 10 μM BAY 43-9006 or DMSO as a control. Equivalent amounts of cellular proteins were resolved on SDS-gels and the levels of active ERK were determined using the ppERK antibody.
FIG. 6. Ablation of BRAF, but not CRAF blocks ERK activity in melanoma cells. WM-266.4 or Colo 829 cells were treated with a BRAF specific siRNA probe (BRAF), or the scrambled control (sBRAF), or a CRAF specific probe (CRAF), or its scrambled control (sCRAF), or oligofectamine (oligo) or left untreated (control) as indicated. The cells were incubated for the times indicated, and the Colo 829 cells were treated for 24 hours. The levels of ERK activity in equivalent amounts of cell extract was determined by Western blotting with the ppERK antibody.
In order to validate BRAF as a target in cancer, it is first tested whether the growth of cells that express activated, mutant forms of BRAF required the RAF-MEK-ERK signaling pathway for growth. To this end, melanoma and colorectal cell lines that harbour mutations in the BRAF gene are treated with pharmacological agents that block signaling through this pathway. Two compounds are tested. One is the compound U0126, which is a MEK inhibitor and which therefore uncouples RAF-ERK signaling in cells (Sebolt-Leopold et al., 1999). […]

The next series relates to ERK in Mawi. Conditions: colorectal, Ras wt, B-Raf V599E. The text has this:
(§1) The second approach is to examine the effects of the compound U0126, an inhibitor of MEK1/2, the only known substrates for B-Raf.

The next series concerns WM-266-4/WM-115. Conditions: WM-266-4/WM-115, melanoma, B-Raf V599D.
From the text: as §1

In another series the test system is SK-MEL-28. The note with it: SK-MEL-28, melanoma, B-Raf V599E.
From the text: as §1

The test system of another series is ERK in WM-266-4/WM-115. Conditions: WM-266-4/WM-115, melanoma, B-Raf V599D.
From the text: as §1

Another series has as its system ERK in SK-MEL-28. The note with it: SK-MEL-28, melanoma, B-Raf V599E.
From the text: as §1

In the next series the target is cellular Ras (human). Description: cell-based or functional assay.

L596V B-Raf (myc-epitope tagged): the “^V12Ras stimulated kinase activity of B-Raf (immunoprecipitation kinase cascade assay, GST-MEK, GST-ERK and MBP as sequential substrates)” value (from here on “^V12Ras stimulated kinase activity”) in the series on oncogenic Ras (V12Ras) is reported as “All five mutants are stimulated by oncogenic Ras (^V12Ras). However, the fold activation for each of the mutants is reduced compared with wild-type B-Raf”.

As for `CNC(=O)c1cc(Oc2ccc(NC(=O)Nc3ccc(Cl)c(C(F)(F)F)c3)cc2)ccn1` [BAY 43-9006], the “ERK activity (ppERK Western blot)” value with ERK in WM266.4 cells was “strongly suppressed”.

On to `N#CC(=C(/N)Sc1ccccc1N)/C(C#N)=C(\N)Sc1ccccc1N` [U0126], for which the “UO/ ERK-inhib” value in the series with ERK in Mawi, with ERK in WM-266-4/WM-115 and in the series on ERK in SK-MEL-28 was greater than 90% throughout. For the same molecule, the “U0 inhibit S” value in the series on WM-266-4/WM-115 was greater than 99%; in the series with SK-MEL-28, 98%. In the series with ERK in WM266.4 cells, the “ERK activity (ppERK Western blot)” value is recorded as “strongly suppressed”.

G595R B-Raf (myc-epitope tagged): the “^V12Ras stimulated kinase activity” value with oncogenic Ras (V12Ras) is given as “^G595RB-Raf is also stimulated by ^V12Ras, but the activation was very weak, probably due to the low starting levels”.

As to G468A B-Raf (myc-epitope tagged), the “^V12Ras stimulated kinase activity” value in the series with oncogenic Ras (V12Ras) is “All five mutants are stimulated by oncogenic Ras (^V12Ras). However, the fold activation for each of the mutants is reduced compared with wild-type B-Raf”.

In the case of V599E B-Raf (myc-epitope tagged), the “^V12Ras stimulated kinase activity” value in the series on oncogenic Ras (V12Ras) was “the fold activation for each of the mutants is reduced compared with wild-type B-Raf (See FIG. 1A, B) and is particularly small in the case of ^V599EB-Raf”.

With monoclonal antibody Y13-259, in the series with cellular Ras (human), the Y13-259 S-phase inhibition (percentage of cells that do not incorporate BrdU) after micro-injection; A2058 melanoma cells, Ras status blank, B-Raf V599E turned out to be 0%; the Y13-259 S-phase inhibition (percentage of cells that do not incorporate BrdU) after micro-injection; CaCO2 colorectal cells, Ras wt, B-Raf wt is 60%; the Y13-259 S-phase inhibition (percentage of cells that do not incorporate BrdU) after micro-injection; DLD1 colorectal cells, Ras K13Asp/wt, B-Raf wt amounted to 40%; the Y13-259 S-phase inhibition (percentage of cells that do not incorporate BrdU) after micro-injection; HCT-116 colorectal cells, Ras K13 Asp, B-Raf wt amounted to 95%. In the series with cellular Ras (human), this molecule came in with a Y13-259 S-phase inhibition (percentage of cells that do not incorporate BrdU) after micro-injection; HMV11-Riken melanoma cells, Ras status blank, B-Raf wt of 100%; a Y13-259 S-phase inhibition (percentage of cells that do not incorporate BrdU) after micro-injection; HT29 colorectal cells, Ras wt, B-Raf V599E of 15%; a Y13-259 S-phase inhibition (percentage of cells that do not incorporate BrdU) after micro-injection; JW2 colorectal cells, Ras K12, B-Raf wt of 79%; a Y13-259 S-phase inhibition (percentage of cells that do not incorporate BrdU) after micro-injection; LS174T colorectal cells, Ras K12Asp/wt, B-Raf wt of 84%. In the series with cellular Ras (human), this molecule came in with a Y13-259 S-phase inhibition (percentage of cells that do not incorporate BrdU) after micro-injection; LS411N colorectal cells, Ras status blank, B-Raf V599E (first value) of 0%; a Y13-259 S-phase inhibition (percentage of cells that do not incorporate BrdU) after micro-injection; LS411N colorectal cells, Ras status blank, B-Raf V599E (second value) of 0%; a Y13-259 S-phase inhibition (percentage of cells that do not incorporate BrdU) after micro-injection; Malme melanoma cells, Ras status blank, B-Raf V599E of 0%; a Y13-259 S-phase inhibition (percentage of cells that do not incorporate BrdU) after micro-injection; Mawi colorectal cells, Ras wt, B-Raf V599E of 5%. Also, in the series with cellular Ras (human), the Y13-259 S-phase inhibition (percentage of cells that do not incorporate BrdU) after micro-injection; NCI-H2087 NSCLC cell line pair, Ras onc, B-Raf L596V is 77%; the Y13-259 S-phase inhibition (percentage of cells that do not incorporate BrdU) after micro-injection; SK-MEL-28 melanoma cells, Ras b, B-Raf V599E is 4%; the Y13-259 S-phase inhibition (percentage of cells that do not incorporate BrdU) after micro-injection; SK-Mel2 melanoma cells, Ras status blank, B-Raf wt worked out at 70%; the Y13-259 S-phase inhibition (percentage of cells that do not incorporate BrdU) after micro-injection; SW480 colorectal cells, Ras K12, B-Raf wt was found to be 57%. In the series with cellular Ras (human), this molecule returned a Y13-259 S-phase inhibition (percentage of cells that do not incorporate BrdU) after micro-injection; SW620 colorectal cells, Ras onc, B-Raf wt of 92%; a Y13-259 S-phase inhibition (percentage of cells that do not incorporate BrdU) after micro-injection; WM-266-4/WM-115 melanoma cells, Ras b, B-Raf V599D of 10%; a Y13-259 S-phase inhibition (percentage of cells that do not incorporate BrdU) after micro-injection; colo205 colorectal cells, Ras wt, B-Raf V599E of 3%; a Y13-259 S-phase inhibition (percentage of cells that do not incorporate BrdU) after micro-injection; colo741 colorectal cells, Ras status blank, B-Raf V599E of 0%.

On to G463V B-Raf (myc-epitope tagged), for which the “^V12Ras stimulated kinase activity” value with oncogenic Ras (V12Ras) is listed as “All five mutants are stimulated by oncogenic Ras (^V12Ras). However, the fold activation for each of the mutants is reduced compared with wild-type B-Raf”.
